Experimental findings from patent US20030008291A1 are described below.

Test [1] addresses UvrA. Nature of the test: SPR (BIAcore), His-tagged β domain immobilised on Ni-NTA sensor chip, UvrA in solution, with ATP. In general terms: In SPR one partner is held on a chip, and binding of the other changes the refractive index at the surface.
Test [2] has as its target UvrA. Nature of the test: SPR (BIAcore), His-tagged β domain immobilised on Ni-NTA sensor chip, UvrA in solution, without ATP.
The target in test [3] is TRCF-β (β domain of Thermus thermophilus HB8 transcription-repair coupling factor, His-tagged) (Thermus thermophilus HB8). The test can be described thus: SPR (BIAcore), His-tagged β domain immobilised on Ni-NTA sensor chip, UvrA injected, without ATP (- ATP).
Test [4] shares this target. The test can be described thus: SPR (BIAcore), His-tagged β domain immobilised on Ni-NTA sensor chip, UvrA injected, with ATP (+ ATP).

Chain of UvrA (enzyme) (Q56242 whole entry): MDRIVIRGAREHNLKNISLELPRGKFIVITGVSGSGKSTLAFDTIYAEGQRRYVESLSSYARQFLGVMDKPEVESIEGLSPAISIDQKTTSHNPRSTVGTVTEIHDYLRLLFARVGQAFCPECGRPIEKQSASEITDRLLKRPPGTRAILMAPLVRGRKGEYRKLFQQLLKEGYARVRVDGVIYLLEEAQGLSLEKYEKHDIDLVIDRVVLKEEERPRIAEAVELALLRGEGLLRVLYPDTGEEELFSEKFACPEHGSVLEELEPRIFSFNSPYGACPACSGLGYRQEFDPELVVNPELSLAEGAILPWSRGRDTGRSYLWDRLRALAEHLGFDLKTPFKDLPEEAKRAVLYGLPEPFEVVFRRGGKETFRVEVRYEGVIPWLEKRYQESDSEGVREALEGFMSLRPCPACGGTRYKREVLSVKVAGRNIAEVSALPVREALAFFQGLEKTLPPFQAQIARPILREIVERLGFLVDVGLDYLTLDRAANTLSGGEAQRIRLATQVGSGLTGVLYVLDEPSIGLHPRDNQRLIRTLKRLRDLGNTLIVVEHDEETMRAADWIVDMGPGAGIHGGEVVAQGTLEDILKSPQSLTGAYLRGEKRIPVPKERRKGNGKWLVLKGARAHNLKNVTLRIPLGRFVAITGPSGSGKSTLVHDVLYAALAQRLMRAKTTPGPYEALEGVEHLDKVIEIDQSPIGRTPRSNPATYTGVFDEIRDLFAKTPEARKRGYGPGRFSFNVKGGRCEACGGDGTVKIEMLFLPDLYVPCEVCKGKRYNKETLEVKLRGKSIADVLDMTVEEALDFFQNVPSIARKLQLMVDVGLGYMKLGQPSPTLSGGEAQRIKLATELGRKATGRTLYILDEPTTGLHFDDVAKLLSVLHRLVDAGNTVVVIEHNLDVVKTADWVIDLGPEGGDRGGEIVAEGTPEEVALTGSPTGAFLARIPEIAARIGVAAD
Chain of UvrA (Q56242 whole entry): as above

For orientation: Kd means the equilibrium constant for the complex coming apart. A higher Kd goes with lower affinity. In the case of “TRCF-β (β domain of Thermus thermophilus HB8 transcription-repair coupling factor, His-tagged) (enzyme)”, the values for the dissociation constant Kd in test [1] and in test [2] were 500 nM and 1300 nM, respectively.

In general, koff refers to the first-order rate constant of dissociation. One may read the kon as the rate constant with which the complex forms. Read a low kon as slow association. In test [3], UvrA (enzyme) displayed a koff of 0.13 s⁻¹ and a kon of 100000 M⁻¹ s⁻¹. In test [4], this substance registered a koff of 0.07 s⁻¹ and a kon of 150000 M⁻¹ s⁻¹.
